The source of these data is the RNAGym collection of RNA variant scans (doi:10.7554/elife.80360).

First the molecules themselves.
B1: HDV Ribozyme (parent)
chain: GGCCGGCAUGGUCCCAGCCUCCUCGCUGGCGCCGGCUGGGCAACAUUCCGAGGGGACCGUCCCCUCGGUAAUGGCGAAUGGGACCCA

In the data set the parent is B1. The data set can be described thus: self-cleavage, relative activity (ratio to wild type); higher = more cleavage; co-transcriptional.
GGCCGGCAUGGUCCCAGCAUCCUCGCUGGCGCUGGCUGGGCAACAUUCCGAGGGGACCGUCCCCUCGGUAAUGGCGAAUGGGACCCA [C19A C33U]: the self-cleavage turned out to be 0.
As for GGCCGGCAUGGUCCCAGCAUCCUCGCUGGCGCAGGCUGGGCAACAUUCCGAGGGGACCGUCCCCUCGGUAAUGGCGAAUGGGACCCA [C19A C33A], the self-cleavage amounted to 0.0852.
Consider GGCCGGCAUGGUCCCAGCAUCCUCGCUGGCGCCGGCUGGGCAACAUUCCGAGGGGACCGUCCUCUCGGUAAUGGCGAAUGGGACCCA [C19A C63U], for which the self-cleavage was found to be 0.1.
Turning to GGCCGGCAUGGUCCCAGCAUCCUCGCUGGCGCCGGCUGGGCAACAUUCCGAGGGGACCGUCCGCUCGGUAAUGGCGAAUGGGACCCA [C19A C63G], the self-cleavage amounted to 0.256.
Then GGCCGGCAUGGUCCCAGCAUCCUCGCUGGCGCCGGCUGGGCAACAUUCCGAGGGGACCGUCCCCUGGGUAAUGGCGAAUGGGACCCA [C19A C66G], with 0.115; and GGCCGGCAUGGUCCCAGCAUCCUCGCUGGCGCCGGCUGGGCAACAUUCCGAGGGGACCGUCCCCUAGGUAAUGGCGAAUGGGACCCA [C19A C66A], with 0.211.
Turning to GGCCGGCAUGGUCCCAGCAUCCUCGCUGGCGCCGGCUGGGCAACAUUCAGAGGGGACCGUCCCCUCGGUAAUGGCGAAUGGGACCCA [C19A C49A], the self-cleavage came to 0.0504.
Turning to GGCCGGCAUGGUCCCAGCAUCCUCGCUGGCGCCGGCUGGGCAACAUUCGGAGGGGACCGUCCCCUCGGUAAUGGCGAAUGGGACCCA [C19A C49G], the self-cleavage was 0.0733.
For GGCCGGCAUGGUCCCAGCAUCCUCGCUGGCGCCGGCUGGGCAACUUUCCGAGGGGACCGUCCCCUCGGUAAUGGCGAAUGGGACCCA [C19A A45U], the self-cleavage was 0.199.
Consider GGCCGGCAUGGUCCCAGCAUCCUCGCUGGCGCCGGCUGGGCAACGUUCCGAGGGGACCGUCCCCUCGGUAAUGGCGAAUGGGACCCA [C19A A45G], for which the self-cleavage was found to be 0.0369.
In the case of GGCCGGCAUGGUCCCAGCAUCCUCGCUGGCGCCGGCUGGGCAACCUUCCGAGGGGACCGUCCCCUCGGUAAUGGCGAAUGGGACCCA [C19A A45C], the self-cleavage came to 0.0755.
As to GGCCGGCAUGGUCCCAGCAUCCUCGCUGGCGCCGGCUGGGCAACAUUCCGCGGGGACCGUCCCCUCGGUAAUGGCGAAUGGGACCCA [C19A A51C], the self-cleavage stood at 0.0733.
Then GGCCGGCAUGGUCCCAGCAUCCUCGCUGGCGCCGGCUGGGCAACAUUCCGGGGGGACCGUCCCCUCGGUAAUGGCGAAUGGGACCCA [C19A A51G], with 0.0712.
Consider GGCCGGCAUGGUCCCAGCAUCCUCGCUGGCGCCGGCUGGGCAACAUUCCGUGGGGACCGUCCCCUCGGUAAUGGCGAAUGGGACCCA [C19A A51U], for which the self-cleavage was 0.175.
On to GGCCGGCAUGGUCCCAGCAUCCUCGCUGGCGCCGGCUGGGCAGCAUUCCGAGGGGACCGUCCCCUCGGUAAUGGCGAAUGGGACCCA [C19A A43G], for which the self-cleavage came out at 0.0354.
Regarding GGCCGGCAUGGUCCCAGCAUCCUCGCUGGCGCCGGCUGGGCACCAUUCCGAGGGGACCGUCCCCUCGGUAAUGGCGAAUGGGACCCA [C19A A43C], the self-cleavage was found to be 0.0665.
In the case of GGCCGGCAUGGUCCCAGCAUCCUCGCUGGCGGCGGCUGGGCAACAUUCCGAGGGGACCGUCCCCUCGGUAAUGGCGAAUGGGACCCA [C19A C32G] it was 0.116; in that of GGCCGGCAUGGUCCCAGCAUCCUCGCUGGCGUCGGCUGGGCAACAUUCCGAGGGGACCGUCCCCUCGGUAAUGGCGAAUGGGACCCA [C19A C32U], 0.0841; in that of GGCCGGCAUGGUCCCAGCAUCCUCGCUGGCGCCGGCUGGGCAACAUUCCGAGGGGCCCGUCCCCUCGGUAAUGGCGAAUGGGACCCA [C19A A56C], 0.173.
Turning to GGCCGGCAUGGUCCCAGCAUCCUCGCUGGCGCCGGCUGGGCAACAUUCCGAGGGGACCGUCCCCUCGGUAAUGGCGAAUGGGACCAA [C19A C86A], the self-cleavage was determined as 0.273.
In the case of GGCCGGCAUGGUCCCAGCAUCCUCGCUGGCGCCGGCUGGGCAACAUUCCGAGGGGACCGUCCCCUCGGUAAUGGCGAAUGGGACCGA [C19A C86G] it was 0.0548; in that of GGCCGGCAUGGUCCCAGUCUCCUCGCUGGCGCCGGCUGGGCAACAUCCCGAGGGGACCGUCCCCUCGGUAAUGGCGAAUGGGACCCA [C18U U47C], 0.332; in that of GGCCGGCAUGGUCCCAGUCUCCUCGCUGGCGCCGGCUGGGCAACAUACCGAGGGGACCGUCCCCUCGGUAAUGGCGAAUGGGACCCA [C18U U47A], 0.293.
With GGCCGGCAUGGUCCCAGCAUCCUCGCUGGCGCCGGCUGGGCAACAUUCCGAGGGGACCGUCCCCUCGGUAUUGGCGAAUGGGACCCA [C19A A71U], the self-cleavage worked out at 0.0978.
Take GGCCGGCAUGGUCCCAGCAUCCUCGCUGGCGCCGGCUGGGCAACAUUCCGAGGGGACCGUCCCCUCGGUACUGGCGAAUGGGACCCA [C19A A71C]: the self-cleavage came out at 0.0396.
Turning to GGCCGGCAUGGUCCCAGCAUCCUCGCUGGCGCCGGCUGGGCAACAUUCCGAGGGGACCGUCCCCUCGGUAGUGGCGAAUGGGACCCA [C19A A71G], the self-cleavage was 0.136.
In the case of GGCCGGCAUGGUCCCAGCAUCCUCGCUGGCGCCGGCUGGGAAACAUUCCGAGGGGACCGUCCCCUCGGUAAUGGCGAAUGGGACCCA [C19A C41A] it was 0.0268.
In the case of GGCCGGCAUGGUCCCAGCAUCCUCGCUGGCGCCGGCUGGGUAACAUUCCGAGGGGACCGUCCCCUCGGUAAUGGCGAAUGGGACCCA [C19A C41U], the self-cleavage worked out at 0.0382.
Consider GGCCGGCAUGGUCCCAGCAUCCUCGCUGGCGCCGGCUGGGGAACAUUCCGAGGGGACCGUCCCCUCGGUAAUGGCGAAUGGGACCCA [C19A C41G], for which the self-cleavage is 0.
Consider GGCCGGCAUGGUCCCAGCAUCCUCGCUGGCGCCGGCUGGGCAACAUUCCGAGGGGACCGUCCCAUCGGUAAUGGCGAAUGGGACCCA [C19A C64A], for which the self-cleavage turned out to be 0.141.
In the case of GGCCGGCAUGGUCCCAGCAUCCUCGCUGGCGCCGGCUGGGCAACAUUCCGAGGGGACCGUCCCGUCGGUAAUGGCGAAUGGGACCCA [C19A C64G] it was 0.111; in that of GGCCGGCAUGGUCCCAGCAUCCUCGCUGGCGCCGGCUGGGCAACAUUCCGAGGGGACCGUCCCUUCGGUAAUGGCGAAUGGGACCCA [C19A C64U], 0.128.
